Results from patent US20030199077.

T1: trypsin inhibitor type IV-0 (Ovo-inhibitor), Sigma T-1886, P10184
T1 chain: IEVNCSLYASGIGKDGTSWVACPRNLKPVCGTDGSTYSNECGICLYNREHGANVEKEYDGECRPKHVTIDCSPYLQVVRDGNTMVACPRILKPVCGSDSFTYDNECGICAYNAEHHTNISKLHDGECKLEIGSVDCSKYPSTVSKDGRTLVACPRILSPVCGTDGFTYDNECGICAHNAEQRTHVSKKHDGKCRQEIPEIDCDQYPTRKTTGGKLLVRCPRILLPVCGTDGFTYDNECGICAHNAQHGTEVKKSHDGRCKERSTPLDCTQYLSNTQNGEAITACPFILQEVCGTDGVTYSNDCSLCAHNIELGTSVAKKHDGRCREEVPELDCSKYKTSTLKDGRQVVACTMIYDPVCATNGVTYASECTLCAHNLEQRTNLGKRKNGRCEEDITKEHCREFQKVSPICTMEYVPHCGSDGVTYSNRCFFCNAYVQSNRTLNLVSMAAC

T2: trypsin inhibitor type IV-0 (Ovo-inhibitor), Sigma T-1886 (UniProt P10184)
T2 sequence: T1 chain

B1: Savinase® (subtilisin 309 from B. lentus, BLSAVI) (protein)
chain: AQSVPWGISRVQAPAAHNRGLTGSGVKVAVLDTGISTHPDLNIRGGASFVPGEPSTQDGNGHGTHVAGTIAALNNSIGVLGVAPSAELYAVKVLGASGSGSVSSIAQGLEWAGNNGMHVANLSLGSPSPSATLEQAVNSATSRGVLVVAASGNSGAGSISYPARYANAMAVGATDQNNNRASFSQYGAGLDIVAPGVNVQSTYPGSTYASLNGTSMATPHVAGAAALVKQKNPSWSNVQIRNHLKNTATSLGSTNLYGSGLVNAEAATR

Target: T1, trypsin inhibitor type IV-0 …

Molecule	Residual Activity (%)
B1	<5

target: T2, trypsin inhibitor type IV-0 (Ovo-inhibitor), Sigma T-1886

Molecule	Residual Activity (%)
Savinase variant S99SD+S99A+T143K	23
Savinase variant S99SD+S99A+P131T	35.6
Savinase variant S99SD	25
Savinase variant S99SD+S99A+P129PR	21
Savinase variant S99SD+S99A+S216SDP	35
Savinase variant S99SE	27
Savinase variant S99SD+S99A+L217LP	97
Savinase variant S99SD+M222S	25
Savinase variant S99SD+S99A	27.3
Savinase variant S99SD+S99A+D42DN	69.2
Savinase variant S99SD+S99A+L217F+A228V+A230V	12
Savinase variant S99SD+S99A+A133E	39
Savinase variant S99SN	19
Savinase variant S99SD+S99A+P129PD	50
Savinase variant A98AT+Y167A+R170S+A194P	88
Savinase variant A98AI+A98G+S99H+G100S+S101A	22
Savinase variant S99SQ+S99T	25
Savinase variant S99SD+N76D+A194P+A230V	18.4
Savinase variant S99SR+S99T	67.7
Savinase variant S99SD+S99A+S216SP	29.2
